Test results published in US20230348603A1 (VERSEAU THERAPEUTICS, published 2023).

Legend:
Human VSIG4-L-Fc [1] = target: T1, Human VSIG4-L-Fc (human); test: BLI binning on hVSIG4-L-Fc, competitor 14C05 first;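 further: normalized to binding of second antibody without first competitor antibody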
T1 construct: also called hVSIG4-L-Fc; hVSIG4-L

Human VSIG4-L-His = target: T2, Human VSIG4-L-His (human, UniProt Q9Y279 20-283); test: BLI (Octet), IgG on AHC sensor, antigen 100 nM
T2 construct: long isoform ECD with His tag; also called hVSIG4-L
T2 sequence: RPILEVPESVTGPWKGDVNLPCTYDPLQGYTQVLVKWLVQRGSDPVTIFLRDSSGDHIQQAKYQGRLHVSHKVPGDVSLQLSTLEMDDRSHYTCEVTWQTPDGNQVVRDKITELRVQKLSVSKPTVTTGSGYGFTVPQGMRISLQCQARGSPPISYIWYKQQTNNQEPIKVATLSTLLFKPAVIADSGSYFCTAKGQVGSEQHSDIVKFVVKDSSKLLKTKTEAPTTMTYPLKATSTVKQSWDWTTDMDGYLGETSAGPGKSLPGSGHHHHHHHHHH

Human VSIG4-S-His = target: T3, Human VSIG4-S-His (human, UniProt Q9Y279 20-283); test: BLI (Octet), IgG on AHC sensor, antigen 100 nM
T3 construct: short isoform ECD with His tag; also called hVSIG4-S; VISG4-S-His
T3 sequence: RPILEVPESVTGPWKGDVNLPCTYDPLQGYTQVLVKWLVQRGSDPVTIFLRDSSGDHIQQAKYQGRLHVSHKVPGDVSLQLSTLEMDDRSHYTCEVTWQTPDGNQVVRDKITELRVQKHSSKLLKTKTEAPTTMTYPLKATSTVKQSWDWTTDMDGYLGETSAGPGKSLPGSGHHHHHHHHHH

[2] = target: T4, Cynomolgus Monkey VSIG4-L-His (cynomolgus monkey); test: BLI (Octet), IgG on AHC sensor, antigen 100 nM
T4 construct: ECD with His tag; also called cyVSIG4-L; cyno VSIG4-L-His
T4 chain: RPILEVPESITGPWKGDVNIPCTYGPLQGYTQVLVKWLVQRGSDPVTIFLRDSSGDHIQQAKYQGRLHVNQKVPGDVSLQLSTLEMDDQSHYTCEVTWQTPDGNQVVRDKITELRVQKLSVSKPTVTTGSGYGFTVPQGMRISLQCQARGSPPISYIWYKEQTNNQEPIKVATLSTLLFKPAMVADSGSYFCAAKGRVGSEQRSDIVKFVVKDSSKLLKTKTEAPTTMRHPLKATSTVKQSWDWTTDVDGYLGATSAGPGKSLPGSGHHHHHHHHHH

Human VSIG4-L-Fc [3] = target: T1, Human VSIG4-L-Fc; test: ligand competition ELISA (FJB), blocked ligand iC3b
Human VSIG4-L-Fc [4] = target: T1, Human VSIG4-L-Fc; test: BLI binning on hVSIG4-L-Fc, competitor 16E03 first;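 further: normalized to binding of second antibody without first competitor antibody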
[5] = target: T5, Human VSIG4-L-CHO (human VSIG4 long isoform on CHO-K1 cells) (human, UniProt Q9Y279 20-399); test: flow cytometry, CHO-K1 cells expressing hVSIG4-L
T5 construct: also called hVSIG4-L (flow cytometry)
T5 sequence: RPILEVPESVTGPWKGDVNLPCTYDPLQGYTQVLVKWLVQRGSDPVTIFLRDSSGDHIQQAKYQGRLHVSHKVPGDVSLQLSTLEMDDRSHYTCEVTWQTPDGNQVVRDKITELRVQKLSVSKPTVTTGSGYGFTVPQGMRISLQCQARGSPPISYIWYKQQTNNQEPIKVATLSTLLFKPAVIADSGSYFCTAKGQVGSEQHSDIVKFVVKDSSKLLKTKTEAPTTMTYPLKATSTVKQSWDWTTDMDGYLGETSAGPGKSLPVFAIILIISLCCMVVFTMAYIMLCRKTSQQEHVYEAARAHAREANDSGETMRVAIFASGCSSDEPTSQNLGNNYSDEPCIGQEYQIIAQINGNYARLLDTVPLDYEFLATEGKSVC

Human VSIG4-L-Fc [6] = target: T1, Human VSIG4-L-Fc; test: BLI binning on hVSIG4-L-Fc, competitor 16E10 first;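 further: normalized to binding of second antibody without first competitor antibody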

T1 sequence (chain, as listed by the source limits assumed): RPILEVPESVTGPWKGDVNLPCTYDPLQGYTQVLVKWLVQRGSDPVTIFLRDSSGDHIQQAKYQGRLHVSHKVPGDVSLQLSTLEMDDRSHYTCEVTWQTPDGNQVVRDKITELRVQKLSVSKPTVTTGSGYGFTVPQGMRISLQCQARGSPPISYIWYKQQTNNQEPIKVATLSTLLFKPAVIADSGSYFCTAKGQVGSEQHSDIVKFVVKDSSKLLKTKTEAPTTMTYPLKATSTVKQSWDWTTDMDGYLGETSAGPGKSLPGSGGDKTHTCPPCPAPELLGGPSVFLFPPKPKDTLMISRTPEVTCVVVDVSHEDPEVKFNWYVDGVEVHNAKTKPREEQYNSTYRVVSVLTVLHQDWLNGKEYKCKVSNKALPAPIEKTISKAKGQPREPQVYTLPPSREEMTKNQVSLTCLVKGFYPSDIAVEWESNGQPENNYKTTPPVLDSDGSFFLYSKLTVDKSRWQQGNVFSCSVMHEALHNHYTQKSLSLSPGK

normalized maximum binding nm shift (Human VSIG4-L-Fc [1]): 0.72 normalized | Kd (Human VSIG4-L-His): 19.1 nM | Kd (Human VSIG4-S-His): 15.8 nM | Kd [2]: 19.5 nM | IC50 (Human VSIG4-L-Fc [3]): 0.5 nM | normalized maximum binding nm shift (Human VSIG4-L-Fc [4]): 0.64 normalized | EC50 [5]: 4.4 nM | normalized maximum binding nm shift (Human VSIG4-L-Fc [6]): 0.62 normalized
B1: 12A12 mouse/human chimeric IgG4 (S228P) kappa (antibody, V domains shown)
VH: QVQMKQSGAELAKPGASVKMSCKASGYTFTNYWMHWVKQRPGQGLEWIGYINPSTGYTDYNQNFKDRATLTADKSSSTAYMQLSSLTSEDSAVYYCIRGSDYYGRDYWGQGTTLTVSS
VL: DIQMTQTTSSLSASLGDRVTISCRASQDISNYLNWYQQKPDGTLKLLIYYTSRLHSGVPSRFSGSGSGTDYSLTISNLEQEDIATYFCRQGNTLPWTFGGGTKLEIKR
